Assay results reported in patent publication US20240067728A1 (BIO THERA SOLUTIONS, published 2024).
Positions count from the first letter of the chain named. Where two headings read alike, the source gives them in different places. Values belong to the binder of their own block, whether it stands above or below them.

Tests used:
[1] = biological target: T1, CD47-His antigen (human, UniProt Q08722 19-139); assay: competitive ELISA, CD47-His coated, competitor SIRPα-Fc-Bio 0.1 µg/mL
T1 construct: Human CD47 ECD with C-terminal 8xHIS tag, expressed in HEK293F; also called hCD47-His; human CD47-His

[2] = biological target: T2, PD-L1-His antigen (human, UniProt Q9NZQ7 19-238); assay: SPR (Biacore), method of Example 5, 1:1 Binding fit
T2 construct: Human PD-L1 ECD with C-terminal 8xHIS tag, expressed in HEK293F; also called hPDL1-His; human PD-L1-His

[3] = biological target: T3, PD-L1 on CHO-PD-L1 cells (Promega PD-1/PD-L1 Blockade Bioassay) (UniProt Q9NZQ7 19-290, limits assumed); assay: cell-based or functional assay
[4] = biological target: T1, CD47-His antigen; assay: SPR (Biacore), method of Example 5, 1:1 Binding fit
[5] = biological target: T2, PD-L1-His antigen; assay: SPR (Biacore T200), PD-L1-His immobilised on chip, antibody as mobile phase, 1:1 Binding fit
[6] = biological target: T3, PD-L1 on CHO-PD-L1 cells (Promega …); assay: cell-based or functional assay; remark: listed apart in the source
[7] = biological target: T4, human PD-L1 on PD-L1-CHO cells (human, UniProt Q9NZQ7 19-290); assay: FACS on PD-L1-CHO cells, PE-labeled anti-human Fc secondary antibody; MFI(Mean) against Con(nM)
T4 construct: whole, on cells; also called CHO cells overexpressing human PD-L1; PD-L1 expressed on the cell surface

[8] = biological target: T2, PD-L1-His antigen; assay: SPR (Biacore), method of Example 5, 1:1 Binding fit; remark: listed apart in the source
[9] = biological target: T1, CD47-His antigen; assay: as above; remark: listed apart in the source
[10] = biological target: T1, CD47-His antigen; assay: SPR (Biacore), method of Example 5, Two State Reaction fit
[11] = biological target: T3, PD-L1 on CHO-PD-L1 cells (Promega …); assay: cell-based or functional assay; remark: listed apart in the source

T3 sequence (Q9NZQ7 19-290 limits assumed): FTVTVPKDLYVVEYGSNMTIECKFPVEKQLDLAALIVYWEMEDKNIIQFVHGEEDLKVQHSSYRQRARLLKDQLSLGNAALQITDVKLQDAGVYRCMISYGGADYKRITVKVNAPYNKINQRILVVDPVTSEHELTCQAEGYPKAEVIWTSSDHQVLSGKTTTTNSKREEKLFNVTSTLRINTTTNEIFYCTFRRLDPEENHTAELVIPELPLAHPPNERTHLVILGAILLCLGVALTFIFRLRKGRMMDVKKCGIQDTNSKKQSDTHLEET
T4 sequence (Q9NZQ7 19-290): as the sequence (Q9NZQ7 19-290 limits assumed) above
T2 sequence (Q9NZQ7 other isoform, or with tags, fused parts or gaps limits assumed): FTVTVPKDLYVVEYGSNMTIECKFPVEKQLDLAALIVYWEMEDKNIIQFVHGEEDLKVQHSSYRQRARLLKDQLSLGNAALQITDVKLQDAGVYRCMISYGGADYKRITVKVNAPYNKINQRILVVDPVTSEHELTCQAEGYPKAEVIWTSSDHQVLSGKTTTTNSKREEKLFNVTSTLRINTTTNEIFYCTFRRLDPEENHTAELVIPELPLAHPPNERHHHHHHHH
T1 sequence (Q08722 other isoform, or with tags, fused parts or gaps limits assumed): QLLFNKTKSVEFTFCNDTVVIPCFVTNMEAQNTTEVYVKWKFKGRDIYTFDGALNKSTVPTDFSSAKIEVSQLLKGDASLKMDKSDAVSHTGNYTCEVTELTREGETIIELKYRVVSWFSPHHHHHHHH

B1: antibody 18 (antibody, human IgG1, kappa, V domains shown)
VH: QVQLQESGPGLVKPSETLSLTCTVSGGSLDNYYWSWIRQPPGKGLEWIGYIYYSGNTNYNPSLKSRVTISVDTSKNQFSLRLRSVTAADTAVYYCARGRGIFGYWGQGTLVTVSS
VL: DIQMTQSPSSVSASVGDRVTISCRANQAIGTWLAWYQQKPGKAPKLLIYAASTLQSGVPSRFSGSGSGTEFTLTISSLQAEDVAVYYCQQYYTTPLTFGGGTKLEIKR
notes: IgG1 complete anti-CD47 antibody
- IC50 [1]: 1.23 µg/mL

B2: antibody 25 (antibody, human IgG1, kappa, V domains shown)
VH: B1 VH with R99G, G100R, Y104H
VL: B1 VL
notes: as for B1
- IC50 [1]: 1.31 µg/mL

B3: L1-R2-78 (antibody, V domains shown)
VH: not shown
VL: DIQMTQSPSSFSASTGDRVTITCRASQGISSYLAWYQQKPGKAPKLLIYAASRLQSGVPSRFSGSGSGTDFTLTISSLQAEDVAVYYCQQYYSTPYTFGQGTKVDIKR
notes: Anti-PD-L1 monoclonal antibody, VH CP11-27 with light chain R2-78; also called LI-R2-78
- Kd [2]: 8.99 nM
- EC50 (luciferase reporter, PD-1/PD-L1 blockade MOA assay; blocked partner: PD-1 on Jurkat-PD1 cells) [3]: 3.57 µg/mL

B6: L1-R2-4-46 (antibody, human IgG1, kappa, V domains shown)
VH: EVQLVESGGGLVQPGGSLRLSCAASGFTFSDSWIHWVRQAPGKGLEWVGWISPYGGSTYYADSLGDRFTISADTSKNTAYLQMNSLRAEDTAVYYCARRHWPGGFDYWGQGTLVTVSS
VL: EIVLTQSPSSLSASVGDRVTITCLASQTIGTWLAWYQQKPGKSPQLLIYAASTLQSGVPSRFSGSGSGTDFTLTISSLQPEDVATYYCQQYYSTPRTFGQGTKVEIKR
- Kd [5]: 0.282 nM
- EC50 (luciferase reporter, PD-1/PD-L1 blockade MOA assay; blocked partner: PD-1 on Jurkat-PD1 cells) [6]: 0.224 µg/mL
- EC50 (read off the curve) [6]: ~1 µg/mL
- EC50 (read off the curve) [7]: ~0.6 nM

B7: L1-R2-4 (antibody, V domains shown)
VH: not shown
VL: B6 VL
notes: Anti-PD-L1 monoclonal antibody, VH CP11-27 with light chain R2-4; also called LI-R2-4
- Kd [2]: 1.67 nM
- EC50 (luciferase reporter, PD-1/PD-L1 blockade MOA assay; blocked partner: PD-1 on Jurkat-PD1 cells) [3]: 2.74 µg/mL

B12: L1-R2-6 (antibody, V domains shown)
VH: not shown
VL: EIVLTQSPSSVSASVGDKLTMTCQASQDIGKHLNWYQQKPGKPPKLLIYGASNLKTGVPSRFSGTGSGTDFTLTISSLQPEDFATYYCQQSYTTPYTFGQGTRLEIKR
notes: Anti-PD-L1 monoclonal antibody, VH CP11-27 with light chain R2-6; also called LI-R2-6
- Kd [2]: 10.3 nM
- EC50 (luciferase reporter, PD-1/PD-L1 blockade MOA assay; blocked partner: PD-1 on Jurkat-PD1 cells) [3]: 3.92 µg/mL

B13: 47-R2-6 (antibody, human IgG1, kappa, V domains shown)
VH: QVQLQESGPGLVKPSETLSLTCTVSGGSLDNYYWSWIRQPPGKGLEWIGYIYYSGNTNYNPSLKSRVTISVDTSKNQFSLKLSSVTAADTAVYYCARGGRFLERYWGQGTLVTVSS
VL: B12 VL
notes: Anti-CD47 monoclonal antibody, L12-6-VH with light chain R2-6
- Kd [4]: 1.11 nM

B14: BsAb-71 (bispecific antibody, human IgG1, kappa)
heavy 1: not shown
heavy 2: not shown
light: EIVLTQSPSSLSASVGDRVTITCLASQTIGTWLAWYQQKPGKSPQLLIYAASTLQSGVPSRFSGSGSGTDFTLTISSLQPEDVATYYCQQYYSTPRTFGQGTKVEIKRTVAAPSVFIFPPSDEQLKSGTASVVCLLNNFYPREAKVQWKVDNALQSGNSQESVTEQDSKDSTYSLSSTLTLSKADYEKHKVYACEVTHQGLSSPVTKSFNRGEC
notes: Knob-into-hole IgG1-like bispecific with common light chain; first heavy chain is the anti-PD-L1 arm, second the anti-CD47 arm; also called anti-PD-L1/CD47 bispecific antibody BsAb-71
- Kd [8]: 0.174 nM
- Kd [9]: 27.8 nM
- Kd [10]: 3.78 nM
- EC50 (luciferase reporter, PD-1/PD-L1 blockade MOA assay; blocked partner: PD-1 on Jurkat-PD1 cells) [11]: 0.285 µg/mL

B17: antibody L12-6 (antibody, human IgG1, kappa, V domains shown)
VH: B13 VH
VL: EIVLTQSPSSLSASVGDRVTIPCRASLSIGSFLNWYQQRPGEAPKLLIFAASSLRSGVPSRFSGSGSGTDFTLTISGLQPEDFATYYCQQTYTTPYTFGQGTKVDIKR
notes: as for B1
- IC50 [1]: 0.913 µg/mL

B18: antibody 3-6 (antibody, human IgG1, kappa, V domains shown)
VH: B13 VH with K81R, S83R, F101I, L102F, E103A, R104G
VL: B1 VL
notes: as for B1
- IC50 [1]: 1.12 µg/mL

B20: antibody 6 (antibody, human IgG1, kappa, V domains shown)
VH: QVQLQESGPGLVKPSETLSLTCTVSGGSLNDYYWSWIRQPPGKGLEWIGRIYGNGDTNYNPSLKSRVTISVDTSKNQFSLRLRSVTAADTAVYYCARGGRILAGYWGQGTLVTVSS
VL: B1 VL
notes: as for B1
- IC50 [1]: 1.1 µg/mL

B21: antibody 10 (antibody, human IgG1, kappa, V domains shown)
VH: B20 VH with N30D, D31N, G53Y, D56N
VL: B1 VL
notes: as for B1
- IC50 [1]: 1.06 µg/mL

B22: antibody 24 (antibody, human IgG1, kappa, V domains shown)
VH: B20 VH with N30D, D31N, N54D, G55S, D56A, L102F, A103S
VL: B1 VL
notes: as for B1
- IC50 [1]: 1.41 µg/mL

B23: antibody 16 (antibody, human IgG1, kappa, V domains shown)
VH: B13 VH with K81R, S83R, F101I, L102F, E103S, R104G
VL: B1 VL
notes: as for B1
- IC50 [1]: 0.975 µg/mL

B24: antibody 17 (antibody, human IgG1, kappa, V domains shown)
VH: B13 VH with K81R, S83R
VL: B1 VL
notes: as for B1
- IC50 [1]: 0.795 µg/mL

B27: L1-R2-85 (antibody, V domains shown)
VH: not shown
VL: B3 VL with F11L, T15V, T22P, S30G, S31K, Y32F, K45S, R53S, A80T, Y92F
notes: Anti-PD-L1 monoclonal antibody, VH CP11-27 with light chain R2-85; also called LI-R2-85
- Kd [2]: 11.5 nM
- EC50 (luciferase reporter, PD-1/PD-L1 blockade MOA assay; blocked partner: PD-1 on Jurkat-PD1 cells) [3]: 5.22 µg/mL

Now from value to binder:

- Kd [4]: 655 nM
B4: 47-R2-78 (antibody, human IgG1, kappa, V domains shown)
VH: B13 VH
VL: B3 VL
notes: Anti-CD47 monoclonal antibody, L12-6-VH with light chain R2-78

- Kd [4]: 275 nM
B5: 47-R2-85 (antibody, human IgG1, kappa, V domains shown)
VH: B13 VH
VL: B3 VL with F11L, T15V, T22P, S30G, S31K, Y32F, K45S, R53S, A80T, Y92F
notes: Anti-CD47 monoclonal antibody, L12-6-VH with light chain R2-85

- Kd [5]: 0.341 nM
- EC50 (luciferase reporter, PD-1/PD-L1 blockade MOA assay; blocked partner: PD-1 on Jurkat-PD1 cells) [6]: 0.148 µg/mL
- EC50 (read off the curve) [6]: ~1 µg/mL
- EC50 (read off the curve) [7]: ~0.6 nM
B8: L1-R2-4-36 (antibody, human IgG1, kappa, V domains shown)
VH: B6 VH with S63D, L64F, G65R, D66H
VL: B6 VL

- Kd [2]: 4.08 nM
- EC50 (luciferase reporter, PD-1/PD-L1 blockade MOA assay; blocked partner: PD-1 on Jurkat-PD1 cells) [3]: 3.78 µg/mL
B9: L1-R2-89 (antibody, V domains shown)
VH: not shown
VL: B6 VL with E1D, V3Q, L4M, T53S, R96Y, E105D
notes: Anti-PD-L1 monoclonal antibody, VH CP11-27 with light chain R2-89; also called LI-R2-89

- Kd [5]: 0.29 nM
- EC50 (luciferase reporter, PD-1/PD-L1 blockade MOA assay; blocked partner: PD-1 on Jurkat-PD1 cells) [6]: 0.389 µg/mL
- EC50 (read off the curve) [6]: ~2 µg/mL
- EC50 (read off the curve) [7]: ~0.6 nM
B10: L1-R2-4-47 (antibody, human IgG1, kappa, V domains shown)
VH: B6 VH with S63H, G65S, D66Q
VL: B6 VL

- Kd [5]: 0.371 nM
- EC50 (luciferase reporter, PD-1/PD-L1 blockade MOA assay; blocked partner: PD-1 on Jurkat-PD1 cells) [6]: 0.401 µg/mL
- EC50 (read off the curve) [6]: ~2 µg/mL
B11: L1-R2-4-55 (antibody, human IgG1, kappa, V domains shown)
VH: B6 VH with S63G, L64M, G65R, D66S
VL: B6 VL

- Kd [8]: 0.371 nM
- Kd [9]: 29.1 nM
- EC50 (read off the curve) [7]: ~0.8 nM
- Kd [10]: 3.95 nM
- EC50 (luciferase reporter, PD-1/PD-L1 blockade MOA assay; blocked partner: PD-1 on Jurkat-PD1 cells) [11]: 0.143 µg/mL
B15: BsAb-46 (bispecific antibody, human IgG1, kappa)
heavy 1: not shown
heavy 2: not shown
light: B14 light
notes: Knob-into-hole IgG1-like bispecific with common light chain; first heavy chain is the anti-PD-L1 arm, second the anti-CD47 arm; also called anti-PD-L1/CD47 bispecific antibody BsAb-46

- Kd [8]: 0.352 nM
- Kd [9]: 28 nM
- EC50 (read off the curve) [7]: ~0.7 nM
- Kd [10]: 4.49 nM
- EC50 (luciferase reporter, PD-1/PD-L1 blockade MOA assay; blocked partner: PD-1 on Jurkat-PD1 cells) [11]: 0.208 µg/mL
B16: BsAb-36 (bispecific antibody, human IgG1, kappa)
heavy 1: not shown
heavy 2: not shown
light: B14 light
notes: Knob-into-hole IgG1-like bispecific with common light chain; first heavy chain is the anti-PD-L1 arm, second the anti-CD47 arm; also called anti-PD-L1/CD47 bispecific antibody BsAb-36

- IC50 [1]: 0.939 µg/mL
B19: antibody 3-3 (antibody, human IgG1, kappa, V domains shown)
VH: B13 VH with K81R, S83R, F101I, L102F, E103G, R104G
VL: B1 VL
notes: as for B1

- IC50 [1]: 0.844 µg/mL
B25: antibody 3 (antibody, human IgG1, kappa, V domains shown)
VH: B20 VH with N30D, D31G, G55S, D56T, L102F
VL: B1 VL
notes: as for B1

- Kd [2]: 3.92 nM
- EC50 (luciferase reporter, PD-1/PD-L1 blockade MOA assay; blocked partner: PD-1 on Jurkat-PD1 cells) [3]: 5.09 µg/mL
B26: L1-R2-18 (antibody, V domains shown)
VH: not shown
VL: EIVLTQSPSSVSASVGDRITITCRASQGIGSWLAWYQQKPGKAPSLLIYAASSLQSGVPSRFSGSGSGTDFTLTISSLQTEDVAVYYCQQYFSTPYTFGQGTKVDIKR
notes: Anti-PD-L1 monoclonal antibody, VH CP11-27 with light chain R2-18; also called LI-R2-18
